The target in this experiment is HLA-E/B2M complex, refolded and biotinylated ([HLAE(hu)(22-305)]-Avitag + [B2M(h)(21-119)]) (human), P13747. As to the kind of experiment: cross-linking, 10-fold excess over [HLA-E+VL9], 4 h 37 C, LC-MS.

In patent US20250074942A1, “COMPOSITIONS AND METHODS FOR COVALENT PEPTIDE-BASED MODULATORS OF HLA-E” (Calico Life Sciences LLC, priority 2022, published 2025) one finds % cross-linking with HLA-E data, which are given here for four molecules.

B1: VL9-4 Cys(mSF) (peptide)
peptide: VMACRTLFL
modifications: not checked
For B1, the % cross-linking with HLA-E was 36%.

B2: VL9-8 Cys(mSF) (peptide)
peptide: VMAPRTLCL
modifications: not checked
Turning to B2, the % cross-linking with HLA-E came to 87%.

B3: VL9-3 Cys(mSF) (peptide)
peptide: VMCPRTLFL
modifications: not checked
Take B3: the % cross-linking with HLA-E is 73%.

B4: VL9-7 Cys(mSF) (peptide)
peptide: VMAPRTCFL
modifications: not checked
On to B4, for which the % cross-linking with HLA-E is 22%.
